From PMC6911355

Columns and labels:
[1] = molecular target: TDP-43 1-260 (NTD-RRM1-RRM2) (human, UniProt Q13148 1-260); experiment: ALPHA
[2] = molecular target: TDP-43 102-269 (RRM1-RRM2) (human, UniProt Q13148 102-269); experiment: ALPHA
Sequence of TDP-43 102-269 (RRM1-RRM2) (Q13148 102-269): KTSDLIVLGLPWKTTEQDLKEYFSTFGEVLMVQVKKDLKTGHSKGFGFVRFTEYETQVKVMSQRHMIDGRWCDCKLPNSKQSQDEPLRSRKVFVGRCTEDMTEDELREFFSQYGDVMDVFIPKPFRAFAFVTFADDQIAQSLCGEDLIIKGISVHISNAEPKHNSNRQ

Sequence of TDP-43 1-260 (NTD-RRM1-RRM2) (Q13148 1-260): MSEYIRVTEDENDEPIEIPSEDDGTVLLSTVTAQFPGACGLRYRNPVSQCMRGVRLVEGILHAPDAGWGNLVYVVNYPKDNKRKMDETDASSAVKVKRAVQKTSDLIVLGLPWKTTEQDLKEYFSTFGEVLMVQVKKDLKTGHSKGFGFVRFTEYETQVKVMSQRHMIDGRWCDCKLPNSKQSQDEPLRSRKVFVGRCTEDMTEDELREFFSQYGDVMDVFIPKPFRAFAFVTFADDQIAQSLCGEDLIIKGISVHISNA

B1: (UG)6 (ssRNA)
RNA: UGUGUGUGUGUG
Kd [1]: 0.4 ± 0.04 nM | Kd [2]: 0.73 ± 0.1 nM
